Test results reported in publication PMC3079584, “A Cytoplasmic Complex Mediates Specific mRNA Recognition and Localization in Yeast”.

Legend:
She2p = She2p (Saccharomyces cerevisiae, UniProt P36068 1-246); experiment: filter binding; +++ reference; EMSA: 20 mM HEPES pH 7.8, 200 mM NaCl, 2 mM MgCl2, 2 mM DTT, 4% glycerol, 30 or 100 ug/ml yeast tRNA, 5 nM RNA, 20 C; filter binding: 20 mM HEPES pH 7.4-7.5 (7.9 with She3p), 150 mM NaCl, 2 mM MgCl2, 2 mM DTT, 30 ug/ml yeast tRNA, 0.5 nM RNA; pull-down: HNMD buffer, 4 C; conditions: protein: recombinant; tags: GST tag (PreScission-cleaved); chain copies: 4; label: 32P; stem-loop
She2p, sequence (P36068 whole entry): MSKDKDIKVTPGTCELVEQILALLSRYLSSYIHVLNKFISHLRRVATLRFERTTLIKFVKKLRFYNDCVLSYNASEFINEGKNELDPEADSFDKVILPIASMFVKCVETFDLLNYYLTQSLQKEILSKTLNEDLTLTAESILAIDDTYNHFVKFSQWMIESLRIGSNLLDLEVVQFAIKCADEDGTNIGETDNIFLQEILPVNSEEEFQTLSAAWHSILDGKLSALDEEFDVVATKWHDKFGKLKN

She3p = molecular target: T1, She3p (Saccharomyces cerevisiae, UniProt P38272 1-425); experiment: EMSA; minimal She3p concentration for detection; EMSA: 20 mM HEPES pH 7.8, 200 mM NaCl, 2 mM MgCl2, 2 mM DTT, 4% glycerol, 30 or 100 ug/ml yeast tRNA, 5 nM RNA, 20 C; filter binding: 20 mM HEPES pH 7.4-7.5 (7.9 with She3p), 150 mM NaCl, 2 mM MgCl2, 2 mM DTT, 30 ug/ml yeast tRNA, 0.5 nM RNA; pull-down: HNMD buffer, 4 C; conditions: protein: recombinant; tags: C-terminal His6; label: 32P; stem-loop
T1 sequence: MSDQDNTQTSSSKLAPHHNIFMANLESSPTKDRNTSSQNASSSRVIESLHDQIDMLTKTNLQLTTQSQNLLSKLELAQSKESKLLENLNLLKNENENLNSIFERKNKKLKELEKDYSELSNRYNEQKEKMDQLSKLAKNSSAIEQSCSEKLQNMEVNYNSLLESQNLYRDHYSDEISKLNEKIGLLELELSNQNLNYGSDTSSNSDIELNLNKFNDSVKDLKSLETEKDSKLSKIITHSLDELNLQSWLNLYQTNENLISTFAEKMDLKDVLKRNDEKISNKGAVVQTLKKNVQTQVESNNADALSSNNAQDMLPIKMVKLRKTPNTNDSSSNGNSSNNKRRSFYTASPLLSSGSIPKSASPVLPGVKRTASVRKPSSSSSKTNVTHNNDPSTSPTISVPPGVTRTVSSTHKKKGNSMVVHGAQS

Puf6p = Puf6p (Saccharomyces cerevisiae, UniProt Q04373 2-656); experiment: EMSA; EMSA: 20 mM HEPES pH 7.8, 200 mM NaCl, 2 mM MgCl2, 2 mM DTT, 4% glycerol, 30 or 100 ug/ml yeast tRNA, 5 nM RNA, 20 C; filter binding: 20 mM HEPES pH 7.4-7.5 (7.9 with She3p), 150 mM NaCl, 2 mM MgCl2, 2 mM DTT, 30 ug/ml yeast tRNA, 0.5 nM RNA; pull-down: HNMD buffer, 4 C; conditions: protein: recombinant; tags: GST tag (cleaved for EMSA; retained in GST pull-downs); label: 32P; stem-loop
Puf6p, sequence (Q04373 2-656): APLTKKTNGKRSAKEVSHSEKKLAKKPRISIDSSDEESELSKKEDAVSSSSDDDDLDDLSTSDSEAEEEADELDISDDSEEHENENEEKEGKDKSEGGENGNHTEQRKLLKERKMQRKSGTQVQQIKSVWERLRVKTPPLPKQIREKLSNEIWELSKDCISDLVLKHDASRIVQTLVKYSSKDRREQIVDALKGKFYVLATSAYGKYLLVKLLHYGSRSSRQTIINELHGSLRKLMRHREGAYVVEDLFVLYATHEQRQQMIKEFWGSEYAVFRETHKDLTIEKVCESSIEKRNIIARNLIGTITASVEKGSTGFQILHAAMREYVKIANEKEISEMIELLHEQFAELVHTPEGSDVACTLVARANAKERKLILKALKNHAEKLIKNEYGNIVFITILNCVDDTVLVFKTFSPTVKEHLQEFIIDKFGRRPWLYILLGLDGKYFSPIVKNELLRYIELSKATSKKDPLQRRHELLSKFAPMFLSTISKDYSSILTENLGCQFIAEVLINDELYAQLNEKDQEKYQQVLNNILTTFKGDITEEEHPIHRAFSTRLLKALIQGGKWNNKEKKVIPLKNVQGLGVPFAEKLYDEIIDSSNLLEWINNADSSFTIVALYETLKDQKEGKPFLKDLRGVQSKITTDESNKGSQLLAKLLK

Measured: binding result

B1: ASH1 E3-118 (structured_RNA)
RNA: GAGACAGUAGAGAAUUGAUACAUGGAUAACUGAAUCUCUUUCAACUAAUAAGAGACAUUAUCACGAAACAAUUGUACAUUUCUCUCCUUGUCUGUGCUAAAUAAACUACAAAUAAAAA
binds: all assays above
